According to the supplement of paper PMC10567573:

B1: PDZK1 (parent)
chain: RETASLKLLPHQPRIVEMKKGSNG
B2: ZBED3 (parent)
chain: QARLRDVSRREGALGWAPAAPPPL
B3: SMG5 (parent)
chain: TRKLSPGKKRCKDIKRLLVNFMYL

Variants of: B1
Test: protein stability index of a GFP-peptide fusion (GPS, HEK-293T) (PSI 1-6); higher = more stable
Details: c terminus: a fixed tail appended
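Further: lentivirally expressed fusions sorted by FACS into six bins by GFP to DsRed ratio, PSI derived from sequencing read proportions per bin multiplied by bin number.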

Protein stability index, by site and new letter:
E17: P 2.97; Q 2.92; R 4.02; S 3.67; T 3.86; V 3.21; W 2.7; Y 2.51
M18: A 4.51; C 4.33; D 5.3; E 5.25; F 4; H 4.44; I 4.21; K 4.56; L 4.15; P 4.58; Q 4.58; R 4.93; S 4.79; T 4.85; V 3.86; W 3.53; Y 3.91
K19: A 3.55; C 2.29; D 4.35; E 3.94; G 4.83; H 2.65; I 2.77; L 2.79; N 3.28; P 4.52; R 2.63; S 3.49; T 2.61; V 2.39; W 3.14; Y 2.2
K20: A 3.46; C 3.65; E 4.87; F 3; G 4.14; H 4.4; I 3.41; L 3.61; M 3.57; N 4.28; P 3.99; Q 4.06; T 3.51; V 3.7; W 2.48; Y 3.62
G21: A 2.67; C 2.58; D 4.48; E 4.29; F 2.64; I 3.23; K 3.74; L 1.83; M 2.22; N 3.43; P 3.77; Q 2.92; R 3.9; S 3.37; T 2.25; V 3.56; W 2.6; Y 2.13
S22: C 3.25; D 4.55; E 4.54; F 2.47; G 4.28; I 3.38; K 4.03; L 3.03; M 3.85; N 4.09; P 3.33; Q 3.88; T 3.51; V 4; Y 2.61
N23: A 3.62; C 3.25; D 4.24; E 4.45; G 3.62; I 3.24; K 4.18; L 3.11; M 3.24; P 4.22; Q 4.32; R 4.48; S 3.14; T 3.52; V 3.72; W 3.12; Y 3.3
G24: A 4.52; C 4.01; D 5; E 4.82; F 3.05; H 4.17; K 4.76; L 3.53; M 4.17; N 4.49; P 4.01; Q 4.58; R 4.03; S 3.99; T 4.41; V 4.15; W 3.88; Y 3.56

Variants of: B2
Test: as above
Details: c terminus: a fixed tail appended

Protein stability index of substitutions, site by site:
P18: E 3.56
A20: W 1.96
P21: A 3.1; C 2.31; D 3.96; E 3.87; F 2.48; G 3.02; I 2.84; K 3.55; L 2.67; M 3.2; N 2.84; Q 3.22; R 3.49; S 3.5; V 3.27; W 2.12; Y 2.02
P22: A 3.65; C 2.29; D 3.81; E 4.2; F 2.89; G 3.34; H 3.45; I 2.74; K 3.62; L 3.46; M 3.16; N 3.26; Q 3.29; R 3.31; S 3.2; T 3.11; V 2.46; W 2.62; Y 2.37
P23: A 3.38; C 3.19; D 3.81; E 3.12; F 2.79; G 3.73; I 2.36; K 3.33; L 2.9; M 2.86; N 3.18; Q 3.5; R 3.33; S 3.63; V 2.79; W 2.08; Y 2.06

Variants of: B3
Test: as above
Details: c terminus: a fixed tail appended

Protein stability index, by site and new letter:
T1: A 1.51; C 2.22; E 2.17; G 1.92; H 3.62; I 1.95; M 2.88; Q 2.7; R 4.28; S 3.96; V 3.92; W 1.45
R2: A 2.29; C 2.19; E 1.04; F 3.38; H 1.38; I 3.09; M 3; N 1.94; P 2.76; Q 1.59; S 2.78; T 2.24; V 2.98; Y 4.16
K3: A 2.18; C 2.31; E 2.41; F 2.44; G 3.74; I 2.34; L 1.85; M 2.94; N 2.16; P 2.52; S 1.59; T 1.66; V 3.52; W 1.86
L4: A 1.76; C 2.54; D 1.33; G 1.36; H 2.64; I 3.12; K 2.07; N 1.22; P 2.58; Q 2.06; R 1.15; S 1.47; T 1.62; Y 2.63
S5: D 2.41; F 4.07; G 2.7; K 4.05; L 1.55; P 2.54; Q 2.62; T 1.02
P6: D 2.55; G 2.69; H 2.4; L 2.45; N 1.9; Q 3.24; S 2.1; T 2.59; V 3.45; Y 3.31
G7: A 2.87; E 1.97; F 2.24; I 2.87; K 3.32; L 4.07; M 3.1; N 2.08; P 1.96; Q 1.86; R 2.47; S 2.17; T 2.22; V 2.47
K8: C 3.19; E 3.52; F 4.35; G 1.05; H 3.49; L 2.75; N 1.74; R 2.2; S 1.98; T 2.64; W 2.79
K9: C 2.14; D 3.59; E 2.32; F 3; G 1.4; L 3.19; M 2.31; N 4.29; P 2.4; S 2.86; T 2.64; V 2.04; Y 2.15
R10: C 2.23; D 2.02; E 2.67; G 3.25; H 2.2; K 2.07; L 3.06; N 3.09; P 3.4; Q 3; S 2.03; Y 3.14
C11: A 3.02; D 1.79; E 2.58; F 3.81; G 1.42; H 1.58; I 4.05; K 2; L 2.46; M 1.93; P 2.26; Q 1.39; S 1.4; T 1.59; V 1.4; W 3.27; Y 1.91
K12: A 3.77; C 3.37; D 1.41; E 4.79; F 2.73; G 2.95; L 3.13; M 1.74; N 2.14; P 2.41; Q 2.46; R 2.47; S 2.06; T 2.96; V 2.02
